# From patent EP4796562A1 (Shanghai Simnova Biotechnology Co., Ltd., dated 2026)
# T1: DLL3 endogenously expressed on SHP77 cells (human, UniProt Q9NYJ7 27-618)
# T1 construct: whole, on cells; also called human DLL3 on SHP-77
# T1 sequence (looked up): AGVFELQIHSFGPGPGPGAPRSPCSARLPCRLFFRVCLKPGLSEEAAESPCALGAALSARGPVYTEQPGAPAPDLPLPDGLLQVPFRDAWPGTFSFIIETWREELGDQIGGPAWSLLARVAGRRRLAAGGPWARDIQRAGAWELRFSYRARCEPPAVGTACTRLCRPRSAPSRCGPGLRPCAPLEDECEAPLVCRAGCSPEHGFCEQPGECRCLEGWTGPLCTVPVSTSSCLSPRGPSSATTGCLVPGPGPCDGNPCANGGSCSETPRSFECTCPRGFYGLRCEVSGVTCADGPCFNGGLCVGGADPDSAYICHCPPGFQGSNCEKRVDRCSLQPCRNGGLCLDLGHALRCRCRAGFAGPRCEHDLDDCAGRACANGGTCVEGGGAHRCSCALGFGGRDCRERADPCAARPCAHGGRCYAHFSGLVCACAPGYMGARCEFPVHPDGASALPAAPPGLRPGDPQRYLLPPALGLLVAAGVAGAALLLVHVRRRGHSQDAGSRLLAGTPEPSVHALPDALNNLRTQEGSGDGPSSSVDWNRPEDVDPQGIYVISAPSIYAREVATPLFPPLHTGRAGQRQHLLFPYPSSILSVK
# B1: DLL3-scFv-2 (scFv)
# scFv: DIVMTQSPATLSVTPGDRVSLSCRASQTISDYLHWYQQRSHESPRLLIKYASQSISGIPSRFSGSGSGSDFTLSINSVEPEDVGVYYCQNGHSFPLTFGAGTKLELKGGGGSGGGGSGGGGSEVQLQQSGTVLARPGASVKMSCKTSGYTFTSYWMHWVKQSPGQGLEWIGTIYPGNSDTRYNQKFKDKAYVTAVTSASTAYMELSSLTNEESAVYYCTRSYDYGDLDYWGQGTTLTVSS
# notes: Murine anti-DLL3 clone; also called DLL3 chimeric antibody DLL3-scFv-2
# B2: DLL3-scFv-3 (scFv)
# scFv: DIVLTQSPASLAVSLGQRATISCRASKSVSTSGFSYMHWYQQKPGQPPKLLIYLASNLESGVPARFSGSGSGTDFTLNIHPVEEEDAATYYCQHSRELPFTFGSGTKLEIKGGGGSGGGGSGGGGSQVQLQQSGAELVKPGASVRISCKASGYAFSNYWINWVKQRPGKGLEWIGQINPGDGDTIYNGKFKGKATLTADKSSSTAYMQLSSLTSEDSAVYFCEREGRNYGDFAYWGQGTTLTVSS
# notes: Murine anti-DLL3 clone; also called DLL3 chimeric antibody DLL3-scFv-3
# B3: DLL3-scFv-1 (scFv)
# scFv: DIVMTQSQKFMSTSVGDRVSITCKASQNVGTAVAWYQQKPGQSPKLLIFSASIRYTGVPDRFTGSGSGTDFTLTISNMQSEDLADYFCQQYSSSPYTFGGGTKLEIKGGGGSGGGGSGGGGSEVQLQQSGPVLVKPGASVKMSCKASGYTFTDYYMNWVKRSHGKSLEWIGIINPYNGGTSYNQKFRGKATLTVDKSSNTAYMELNSLTSEDSAVYYCSRYDYDYDVEGAMDYWGQGTSVTVSS
# notes: Murine anti-DLL3 clone; also called DLL3 chimeric antibody DLL3-scFv-1
# Biological target: T1, DLL3 endogenously expressed on SHP77 …
# Assay: flow cytometry (FACS) on SHP77 cells
row,binding result,Binder
1,binds,B1
2,binds,B2
3,binds,B3
